According to patent US20050176632A1 (published 2005):

B1: human type ZAQ ligand mature peptide (type G, 86 amino acid residues) (ligand)
chain: AVITGACERDVQCGAGTCCAISLWLRGLRMCTPLGREGEECHPGSHKVPFFRKRKHHTCPCLPNLLCSRFPDGRYRCSMDLKNINF
B2: snake venom MIT1 (ligand)
chain: AVITGACERDLQCGKGTCCAVSLWIKSVRVCTPVGTSGEDCHPASHKIPFSGQRMHHTCPCAPNLACVQTSPKKFKCLSK

Columns and labels:
[1] = biological target: human type ZAQ (G protein-conjugated receptor protein ZAQ) expressed on CHO cells (ZAQC-B1 cells) (human, UniProt Q8TCW9 1-393); assay: cell-based or functional assay
[2] = biological target: human type I5E receptor expressed on CHO cells (I5E-4 cells) (human, UniProt Q8NFJ6 1-384); assay: cell-based or functional assay
Sequence of human type I5E receptor expressed on CHO cells (I5E-4 cells) (Q8NFJ6 whole entry): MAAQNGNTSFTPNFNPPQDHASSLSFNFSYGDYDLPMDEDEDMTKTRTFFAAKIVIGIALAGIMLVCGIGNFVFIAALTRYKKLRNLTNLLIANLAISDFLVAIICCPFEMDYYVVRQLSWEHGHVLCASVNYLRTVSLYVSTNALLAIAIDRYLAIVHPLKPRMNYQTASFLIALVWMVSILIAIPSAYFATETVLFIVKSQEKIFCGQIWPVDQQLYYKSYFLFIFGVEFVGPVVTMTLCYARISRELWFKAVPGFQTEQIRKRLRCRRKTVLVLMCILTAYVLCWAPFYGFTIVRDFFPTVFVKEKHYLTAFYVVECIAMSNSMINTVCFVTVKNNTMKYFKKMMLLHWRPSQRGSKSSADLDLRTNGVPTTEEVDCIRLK

Sequence of human type ZAQ (G protein-conjugated receptor protein ZAQ) expressed on CHO cells (ZAQC-B1 cells) (Q8TCW9 whole entry): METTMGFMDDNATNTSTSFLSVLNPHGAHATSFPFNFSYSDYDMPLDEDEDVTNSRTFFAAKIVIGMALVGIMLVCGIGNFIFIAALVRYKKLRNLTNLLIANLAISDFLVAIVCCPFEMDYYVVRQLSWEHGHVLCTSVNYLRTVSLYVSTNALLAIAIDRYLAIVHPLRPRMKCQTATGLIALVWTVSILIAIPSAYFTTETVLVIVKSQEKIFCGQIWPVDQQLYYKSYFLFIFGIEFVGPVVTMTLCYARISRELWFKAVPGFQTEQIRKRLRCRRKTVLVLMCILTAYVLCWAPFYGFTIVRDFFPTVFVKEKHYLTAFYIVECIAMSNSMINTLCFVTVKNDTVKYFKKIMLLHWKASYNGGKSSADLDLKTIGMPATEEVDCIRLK

Binder | EC50 of the increase of intracellular calcium concentration in ZAQ expression CHO cells (ZAQC-B1 cells), FLIPR [1] [pM] | action to activate a human type I5E receptor, relative to the human type ZAQ ligand peptide (FLIPR) [2] | action to activate an I5E receptor, relative to the human type Bv8 peptide (FLIPR) [2] | action to activate a ZAQ receptor, relative to the human type ZAQ ligand peptide (FLIPR) [1]
B1 | 96 |  |  | 
B2 |  | ~100 times greater than the human type ZAQ ligand peptide | 10 times greater than the human type Bv8 peptide | 10 times greater than the human type ZAQ ligand peptide
